Test results from publication PMC4081106 (Nucleic Acids Research, 2014).

Target: the molecule itself
Experiment: SEC + SEC-MALS

B1: TtcA protein from Escherichia coli, N-terminal hexahistidine-tagged (6his-TtcA) (enzyme, E. coli, UniProt P76055 1-311, looked up)
chain: MQENQQITKKEQYNLNKLQKRLRRNVGEAIADFNMIEEGDRIMVCLSGGKDSYTMLEILRNLQQSAPINFSLVAVNLDQKQPGFPEHVLPEYLEKLGVEYKIVEENTYGIVKEKIPEGKTTCSLCSRLRRGILYRTATELGATKIALGHHRDDILQTLFLNMFYGGKMKGMPPKLMSDDGKHIVIRPLAYCREKDIQRFADAKAFPIIPCNLCGSQPNLQRQVIADMLRDWDKRYPGRIETMFSAMQNVVPSHLCDTNLFDFKGITHGSEVVNGGDLAFDREEIPLQPACWQPEEDENQLDELRLNVVEVK
stoichiometry N: 2
